The values that follow come from patent US20220040297A1 (Chugai, published 2022).

The labels stand for the following.
B1: NNS6f63 (antibody)
heavy: QVQLVESGGGLVQPGRSLRLSCAASGFTFSNAWMHWVRQAPGKGLEWVAQIKDKSNNYATYYAESVKGRFTISRDDSKNSIYLQMNSLKTEDTAVYYCRYVHYAAGGGGWVYYGVDAWGQGTTVTVSSASTKGPSVFPLAPSSKSTSGGTAALGCLVKDYFPEPVTVSWNSGALTSGVHTFPAVLQSSGLYSLSSVVTVPSSSLGTQTYICNVNHKPSNTKVDKKVEPKSCDKTHTCPPCPAPEAAGGPSVFLFPPKPKDTLMISRTPEVTCVVVDVSHEDPEVKFNWYVDGVEVHNAKTKPREEQYASTYRVVSVLTVLHQDWLNGKEYKCKVSNKALPAPIEKTISKAKGQPREPQVYTLPPSRCELTKNQVSLSCAVKGFYPSDIAVEWESNGQPENNYKTTPPVLDSDGSFFLVSKLTVDKSRWQQGNVFSCSVMHEALHNHYTQKSLSLSPDYKDDDDK
chain: EPKSSDKTHTCPPCPAPELLGGPSVFLFPPKPKDTLMISRTPEVTCVVVDVSHEDPEVKFNWYVDGVEVHNAKTKPREEQYNSTYRVVSVLTVLHQDWLNGKEYKCKVSNKALPAPIEKTISKAKGQPREPQVCTLPPSRDELTKNQVSLWCLVKGFYPSDIAVEWESNGQPENNYKTTPPVLDSDGSFFLYSKLTVDKSRWQQGNVFSCSVMHEALHNRYTQKSLSLSP
light: DIVMTQSPLSLPVTPGEPASISCRSSQSLVHSNRNTYLHWYQQKPGQAPRLLIYKVSNRFSGVPDRFSGSGSGTDFTLKISRVEAEDVGVYYCGQGTQVPYTFGQGTKLEIKRTVAAPSVFIFPPSDEQLKSGTASVVCLLNNFYPREAKVQWKVDNALQSGNSQESVTEQDSKDSTYSLSSTLTLSKADYEKHKVYACEVTHQGLSSPVTKSFNRGEC
notes: one-arm antibody
B2: NNS6f27 (antibody)
heavy: QVQLVESGGGLVQPGRSLRLSCAASGFTFSNAWMHWVRQAPGKGLEWVAQIKDKSNNYATYYAESVKGRFTISRDDSKNSIYLQMNSLKTEDTAVYYCRYVHYAAVWGSVWYYGVDAWGQGTTVTVSSASTKGPSVFPLAPSSKSTSGGTAALGCLVKDYFPEPVTVSWNSGALTSGVHTFPAVLQSSGLYSLSSVVTVPSSSLGTQTYICNVNHKPSNTKVDKKVEPKSCDKTHTCPPCPAPEAAGGPSVFLFPPKPKDTLMISRTPEVTCVVVDVSHEDPEVKFNWYVDGVEVHNAKTKPREEQYASTYRVVSVLTVLHQDWLNGKEYKCKVSNKALPAPIEKTISKAKGQPREPQVYTLPPSRCELTKNQVSLSCAVKGFYPSDIAVEWESNGQPENNYKTTPPVLDSDGSFFLVSKLTVDKSRWQQGNVFSCSVMHEALHNHYTQKSLSLSPDYKDDDDK
chain: EPKSSDKTHTCPPCPAPELLGGPSVFLFPPKPKDTLMISRTPEVTCVVVDVSHEDPEVKFNWYVDGVEVHNAKTKPREEQYNSTYRVVSVLTVLHQDWLNGKEYKCKVSNKALPAPIEKTISKAKGQPREPQVCTLPPSRDELTKNQVSLWCLVKGFYPSDIAVEWESNGQPENNYKTTPPVLDSDGSFFLYSKLTVDKSRWQQGNVFSCSVMHEALHNRYTQKSLSLSP
light: DIVMTQSPLSLPVTPGEPASISCRSSQSLVHSNRNTYLHWYQQKPGQAPRLLIYKVSNRFSGVPDRFSGSGSGTDFTLKISRVEAEDVGVYYCGQGTQVPYTFGQGTKLEIKRTVAAPSVFIFPPSDEQLKSGTASVVCLLNNFYPREAKVQWKVDNALQSGNSQESVTEQDSKDSTYSLSSTLTLSKADYEKHKVYACEVTHQGLSSPVTKSFNRGEC
notes: one-arm antibody
B3: NNS6f50 (antibody)
heavy: QVQLVESGGGLVQPGRSLRLSCAASGFTFSNAWMHWVRQAPGKGLEWVAQIKDKSNNYATYYAESVKGRFTISRDDSKNSIYLQMNSLKTEDTAVYYCRYVHYAALTGGLGYYGVDAWGQGTTVTVSSASTKGPSVFPLAPSSKSTSGGTAALGCLVKDYFPEPVTVSWNSGALTSGVHTFPAVLQSSGLYSLSSVVTVPSSSLGTQTYICNVNHKPSNTKVDKKVEPKSCDKTHTCPPCPAPEAAGGPSVFLFPPKPKDTLMISRTPEVTCVVVDVSHEDPEVKFNWYVDGVEVHNAKTKPREEQYASTYRVVSVLTVLHQDWLNGKEYKCKVSNKALPAPIEKTISKAKGQPREPQVYTLPPSRCELTKNQVSLSCAVKGFYPSDIAVEWESNGQPENNYKTTPPVLDSDGSFFLVSKLTVDKSRWQQGNVFSCSVMHEALHNHYTQKSLSLSPDYKDDDDK
chain: EPKSSDKTHTCPPCPAPELLGGPSVFLFPPKPKDTLMISRTPEVTCVVVDVSHEDPEVKFNWYVDGVEVHNAKTKPREEQYNSTYRVVSVLTVLHQDWLNGKEYKCKVSNKALPAPIEKTISKAKGQPREPQVCTLPPSRDELTKNQVSLWCLVKGFYPSDIAVEWESNGQPENNYKTTPPVLDSDGSFFLYSKLTVDKSRWQQGNVFSCSVMHEALHNRYTQKSLSLSP
light: DIVMTQSPLSLPVTPGEPASISCRSSQSLVHSNRNTYLHWYQQKPGQAPRLLIYKVSNRFSGVPDRFSGSGSGTDFTLKISRVEAEDVGVYYCGQGTQVPYTFGQGTKLEIKRTVAAPSVFIFPPSDEQLKSGTASVVCLLNNFYPREAKVQWKVDNALQSGNSQESVTEQDSKDSTYSLSSTLTLSKADYEKHKVYACEVTHQGLSSPVTKSFNRGEC
notes: one-arm antibody
B4: NNS6f29 (antibody)
heavy: QVQLVESGGGLVQPGRSLRLSCAASGFTFSNAWMHWVRQAPGKGLEWVAQIKDKSNNYATYYAESVKGRFTISRDDSKNSIYLQMNSLKTEDTAVYYCRYVHYAAIYYPTNYYGVDAWGQGTTVTVSSASTKGPSVFPLAPSSKSTSGGTAALGCLVKDYFPEPVTVSWNSGALTSGVHTFPAVLQSSGLYSLSSVVTVPSSSLGTQTYICNVNHKPSNTKVDKKVEPKSCDKTHTCPPCPAPEAAGGPSVFLFPPKPKDTLMISRTPEVTCVVVDVSHEDPEVKFNWYVDGVEVHNAKTKPREEQYASTYRVVSVLTVLHQDWLNGKEYKCKVSNKALPAPIEKTISKAKGQPREPQVYTLPPSRCELTKNQVSLSCAVKGFYPSDIAVEWESNGQPENNYKTTPPVLDSDGSFFLVSKLTVDKSRWQQGNVFSCSVMHEALHNHYTQKSLSLSPDYKDDDDK
chain: EPKSSDKTHTCPPCPAPELLGGPSVFLFPPKPKDTLMISRTPEVTCVVVDVSHEDPEVKFNWYVDGVEVHNAKTKPREEQYNSTYRVVSVLTVLHQDWLNGKEYKCKVSNKALPAPIEKTISKAKGQPREPQVCTLPPSRDELTKNQVSLWCLVKGFYPSDIAVEWESNGQPENNYKTTPPVLDSDGSFFLYSKLTVDKSRWQQGNVFSCSVMHEALHNRYTQKSLSLSP
light: DIVMTQSPLSLPVTPGEPASISCRSSQSLVHSNRNTYLHWYQQKPGQAPRLLIYKVSNRFSGVPDRFSGSGSGTDFTLKISRVEAEDVGVYYCGQGTQVPYTFGQGTKLEIKRTVAAPSVFIFPPSDEQLKSGTASVVCLLNNFYPREAKVQWKVDNALQSGNSQESVTEQDSKDSTYSLSSTLTLSKADYEKHKVYACEVTHQGLSSPVTKSFNRGEC
notes: one-arm antibody
B5: NNS6f17 (antibody)
heavy: QVQLVESGGGLVQPGRSLRLSCAASGFTFSNAWMHWVRQAPGKGLEWVAQIKDKSNNYATYYAESVKGRFTISRDDSKNSIYLQMNSLKTEDTAVYYCRYVHYAAWGEGVVYYGVDAWGQGTTVTVSSASTKGPSVFPLAPSSKSTSGGTAALGCLVKDYFPEPVTVSWNSGALTSGVHTFPAVLQSSGLYSLSSVVTVPSSSLGTQTYICNVNHKPSNTKVDKKVEPKSCDKTHTCPPCPAPEAAGGPSVFLFPPKPKDTLMISRTPEVTCVVVDVSHEDPEVKFNWYVDGVEVHNAKTKPREEQYASTYRVVSVLTVLHQDWLNGKEYKCKVSNKALPAPIEKTISKAKGQPREPQVYTLPPSRCELTKNQVSLSCAVKGFYPSDIAVEWESNGQPENNYKTTPPVLDSDGSFFLVSKLTVDKSRWQQGNVFSCSVMHEALHNHYTQKSLSLSPDYKDDDDK
chain: EPKSSDKTHTCPPCPAPELLGGPSVFLFPPKPKDTLMISRTPEVTCVVVDVSHEDPEVKFNWYVDGVEVHNAKTKPREEQYNSTYRVVSVLTVLHQDWLNGKEYKCKVSNKALPAPIEKTISKAKGQPREPQVCTLPPSRDELTKNQVSLWCLVKGFYPSDIAVEWESNGQPENNYKTTPPVLDSDGSFFLYSKLTVDKSRWQQGNVFSCSVMHEALHNRYTQKSLSLSP
light: DIVMTQSPLSLPVTPGEPASISCRSSQSLVHSNRNTYLHWYQQKPGQAPRLLIYKVSNRFSGVPDRFSGSGSGTDFTLKISRVEAEDVGVYYCGQGTQVPYTFGQGTKLEIKRTVAAPSVFIFPPSDEQLKSGTASVVCLLNNFYPREAKVQWKVDNALQSGNSQESVTEQDSKDSTYSLSSTLTLSKADYEKHKVYACEVTHQGLSSPVTKSFNRGEC
notes: one-arm antibody
B6: GLS3000 S27eL (antibody, IgG1, name in Kabat numbering, V domains shown)
VH: QVQLVESGGGVVQPGRSLRLSCAASGFTFSNAWMHWVRQAPGKGLEWVAQIKAKSNNYATYYAESVKGRFTISRDDSKNSLYLQMNSLKTEDTAVYYCRYVHYGAYYGVDAWGQGTTVTVSS
VL: DIVMTQSPLSLPVTPGEPASISCRSSQSLVHLNRNTYLHWYQQKPGQAPRLLIYKVSNRFSGVPDRFSGSGSGTDFTLKISRVEAEDVGVYYCGQGTQVPYTFGQGTKLEIK
B7: GLS3000 Y96F (antibody, IgG1, name in Kabat numbering, V domains shown)
VH: QVQLVESGGGVVQPGRSLRLSCAASGFTFSNAWMHWVRQAPGKGLEWVAQIKAKSNNYATYYAESVKGRFTISRDDSKNSLYLQMNSLKTEDTAVYYCRYVHYGAYYGVDAWGQGTTVTVSS
VL: DIVMTQSPLSLPVTPGEPASISCRSSQSLVHSNRNTYLHWYQQKPGQAPRLLIYKVSNRFSGVPDRFSGSGSGTDFTLKISRVEAEDVGVYYCGQGTQVPFTFGQGTKLEIK
B8: GLS3000 V27cE (antibody, IgG1, name in Kabat numbering, V domains shown)
VH: QVQLVESGGGVVQPGRSLRLSCAASGFTFSNAWMHWVRQAPGKGLEWVAQIKAKSNNYATYYAESVKGRFTISRDDSKNSLYLQMNSLKTEDTAVYYCRYVHYGAYYGVDAWGQGTTVTVSS
VL: DIVMTQSPLSLPVTPGEPASISCRSSQSLEHSNRNTYLHWYQQKPGQAPRLLIYKVSNRFSGVPDRFSGSGSGTDFTLKISRVEAEDVGVYYCGQGTQVPYTFGQGTKLEIK
B9: GLS3000 T92Y (antibody, IgG1, name in Kabat numbering, V domains shown)
VH: QVQLVESGGGVVQPGRSLRLSCAASGFTFSNAWMHWVRQAPGKGLEWVAQIKAKSNNYATYYAESVKGRFTISRDDSKNSLYLQMNSLKTEDTAVYYCRYVHYGAYYGVDAWGQGTTVTVSS
VL: DIVMTQSPLSLPVTPGEPASISCRSSQSLVHSNRNTYLHWYQQKPGQAPRLLIYKVSNRFSGVPDRFSGSGSGTDFTLKISRVEAEDVGVYYCGQGYQVPYTFGQGTKLEIK

The target of one assay is T1, CD3ε homodimer protein (human, UniProt P07766 23-126, limits assumed).
T1 construct: also called human CD3ε homodimer protein; CD3e homodimer
In words: SPR (Biacore T200, 25°C); CD3ε homodimer immobilized on CM4, one-arm antibody as analyte.
T1 sequence (P07766 23-126 limits assumed): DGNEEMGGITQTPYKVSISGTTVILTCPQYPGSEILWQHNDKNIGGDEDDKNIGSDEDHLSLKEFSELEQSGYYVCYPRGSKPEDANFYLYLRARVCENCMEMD
The molecule B1 registered a Kd of 69 nM. B2 gave a Kd of 38 nM. B3 registered a Kd of 71 nM. Same read-out and setting: the same measure for B4: 90 nM; for B5: 74 nM.

The next assay addresses T2, CD3ε homodimer protein (human, UniProt P07766 23-126, limits assumed).
T2 construct: Whole entry named for the human CD3 epsilon chain
In words: SPR, CD3e immobilized.
T2 sequence (P07766 23-126 limits assumed): as above
Procedure: Each one-amino acid altered form constructed, expressed, and purified in the paragraph (6-2) was evaluated using Biacore T200 (GE Healthcare Japan Corp.). An appropriate amount of CD3ε homodimer protein was immobilized onto Sensor chip CM4 (GE Healthcare Japan Corp.) by the amine coupling method. Then, the antibody having an appropriate concentration was injected thereto as an analyte and allowed to interact with the CD3ε homodimer protein on the sensor chip. Then, the sensor chip was regenerated by the injection of 10 mmol/L glycine-HCl (pH 1.5). The assay was conducted at 25° C., and HBS-EP+ (GE Healthcare Japan Corp.) was used as a running buffer. […] Each parameter was calculated using Biacore T200 Evaluation Software (GE Healthcare Japan Corp.).
Specifically, when the amount of the GLS3000-containing antibody bound was defined as X and the amount of the L chain one-amino acid altered form bound was defined as Y, a value of Z (ratio of amounts bound)=Y/X was used.
As for B6, the “KD ratio to GLS3000” value is 1.66. Same read-out and setting: next, B7: 0.96; B8: 1.3. As for B9, the “KD ratio to GLS3000” value stood at 2.53.
